Results reported in PMC5884802.

Assays:
[1] = system: α-CRP (α-CRP-AuNP) (DNA, aptamer) ACACGATGGGGGGGTATGATTTGATGTGGTTGTTGCATGATCGTGG; assay: competitive lateral flow assay; details: Na+ 50 mM, K+ 5 mM, Mg2+ 5 mM, Ca2+ 2 mM; 20 mM Tris, 0.1 mM BSA, 1.7% Triton-X-100, pH 8; biotinylated CRP displaced; signal decrease at 18.5 µg ampicillin
[2] = system: CRP-FAM (α-CRP aptamer) (DNA, aptamer) ACACGATGGGGGGGTATGATTTGATGTGGTTGTTGCATGATCGTGG; assay: microscale thermophoresis; details: Na+ 50 mM, K+ 5 mM, Mg2+ 5 mM, Ca2+ 2 mM; 20 mM Tris-HCl, 0.1% Tween-20, pH 8.0; up to 100 µM; no plateau, no fit
[3] = system: α-Amp-short (α-Amp-short-AuNP) (DNA, aptamer) CACGGCATGGTGGGCGTCGTG; assay: competitive lateral flow assay; details: Na+ 50 mM, K+ 5 mM, Mg2+ 5 mM, Ca2+ 2 mM; 20 mM Tris, 0.1 mM BSA, 1.7% Triton-X-100, pH 8; biotinylated CRP displaced; signal decrease at 185 µg ampicillin
[4] = system: Amp(short)-FAM (α-Amp(short) aptamer) (DNA, aptamer) CACGGCATGGTGGGCGTCGTG; assay: microscale thermophoresis; details: Na+ 50 mM, K+ 5 mM, Mg2+ 5 mM, Ca2+ 2 mM; 20 mM Tris-HCl, 0.1% Tween-20, pH 8.0; second printed KD 600 nM, unexplained
[5] = biological target: T1, C-reactive protein (CRP), biotinylated (UniProt P02741 19-224); assay: MST; binding indicated, no plateau, no Kd fit; CRP-biotin 610 pM-20 µM; LFA: 20 mM Tris, 50 mM NaCl, 5 mM KCl, 5 mM MgCl2, 2 mM CaCl2, 0.1 mM BSA, 1.7% Triton X-100, pH 8, temperature not stated; MST with CRP-biotin: 32.8 mM Tris-HCl, 70.5 mM NaCl, 2.5 mM KCl, 2.5 mM MgCl2, 1.4 mM CaCl2, 0.1% Tween-20, 5 nM FAM-oligo; details: protein: commercial; tags: biotin (NHS-PEG4-Biotin); chain copies: 5; label: 5' FAM; stem-loop (Mfold)
T1 sequence: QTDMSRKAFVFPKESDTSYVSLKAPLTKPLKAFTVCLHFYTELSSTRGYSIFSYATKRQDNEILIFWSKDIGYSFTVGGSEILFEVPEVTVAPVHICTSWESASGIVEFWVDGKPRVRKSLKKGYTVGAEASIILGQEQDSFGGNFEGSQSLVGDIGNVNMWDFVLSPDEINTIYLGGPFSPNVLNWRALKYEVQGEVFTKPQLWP

[6] = biological target: T1, C-reactive protein (CRP), biotinylated; assay: lateral flow assay (AuNP); 40.5 µg CRP-biotin; LFA: 20 mM Tris, 50 mM NaCl, 5 mM KCl, 5 mM MgCl2, 2 mM CaCl2, 0.1 mM BSA, 1.7% Triton X-100, pH 8, temperature not stated; MST with CRP-biotin: 32.8 mM Tris-HCl, 70.5 mM NaCl, 2.5 mM KCl, 2.5 mM MgCl2, 1.4 mM CaCl2, 0.1% Tween-20, 5 nM FAM-oligo; details: protein: commercial; tags: biotin (NHS-PEG4-Biotin); chain copies: 5; label: 10 nm gold nanoparticle via 5' thiol; stem-loop (Mfold)
[7] = biological target: T1, C-reactive protein (CRP), biotinylated; assay: lateral flow assay (FAM); 4 µg CRP-biotin; LFA: 20 mM Tris, 50 mM NaCl, 5 mM KCl, 5 mM MgCl2, 2 mM CaCl2, 0.1 mM BSA, 1.7% Triton X-100, pH 8, temperature not stated; MST with CRP-biotin: 32.8 mM Tris-HCl, 70.5 mM NaCl, 2.5 mM KCl, 2.5 mM MgCl2, 1.4 mM CaCl2, 0.1% Tween-20, 5 nM FAM-oligo; details: protein: commercial; tags: biotin (NHS-PEG4-Biotin); chain copies: 5; label: 5' FAM
[8] = biological target: T1, C-reactive protein (CRP), biotinylated; assay: lateral flow assay (AuNP); 40.5 µg CRP-biotin; test line stronger than α-CRP; LFA: 20 mM Tris, 50 mM NaCl, 5 mM KCl, 5 mM MgCl2, 2 mM CaCl2, 0.1 mM BSA, 1.7% Triton X-100, pH 8, temperature not stated; MST with CRP-biotin: 32.8 mM Tris-HCl, 70.5 mM NaCl, 2.5 mM KCl, 2.5 mM MgCl2, 1.4 mM CaCl2, 0.1% Tween-20, 5 nM FAM-oligo; details: protein: commercial, tags: biotin (NHS-PEG4-Biotin), chain copies: 5, label: 10 nm gold nanoparticle via 5' thiol

## CC1(C)S[C@@H]2[C@H](NC(=O)[C@H](N)c3ccccc3)C(=O)N2[C@H]1C(=O)O
[1]
  binding: yes
[2]
  binding: yes
[3]
  binding: yes
[4]
  KD: 263 nM

## ACACGATGGGGGGGTATGATTTGATGTGGTTGTTGCATGATCGTGG (ssDNA) [CRP-FAM]
[5]
  binding result: binds

## ACACGATGGGGGGGTATGATTTGATGTGGTTGTTGCATGATCGTGG (ssDNA, 5' SH-(C6H12) thiol) [α-CRP (AuNP conjugate)]
[6]
  binding result: binds

## ACACGAACCGGGCCAATGATTTGATGACCTTGTTGCATGATCGTAG (ssDNA) [CRP w/o TGG-FAM]
[7]
  binding result: binds

## CACGGCATAGACCGCGTCGTG (ssDNA) [Amp(short) w/o TGG-FAM]
[7]
  binding result: binds

## CACGGCATGGTGGGCGTCGTG (ssDNA, 5' SH-(C6H12) thiol) [α-Amp-short (AuNP conjugate)]
[8]; stem-loop (Mfold)
  binding result: binds

## TTTTTTTTTTTTTTTCACGGCATGGTGGGCGTCGTG (ssDNA, 5' SH-(C6H12) thiol) [α-Amp-poly(T) (AuNP conjugate)]
[8]
  binding result: binds

## CACGGCATGGTGGGCGTCGTG (ssDNA) [Amp(short)-FAM]
[5]
  binding result: binds
